In patent US20110236427:

What was measured:
[1] = system: GST-NR2F6 fusion protein, full-length, wild-type
[2] = system: GST-NR2F6 fusion protein, full-length, S83A mutant
[3] = system: GST-NR2F6 fusion protein, full-length, S89A mutant
Chain of GST-NR2F6 fusion protein, full-length, S89A mutant (chain, as listed by the source S89A): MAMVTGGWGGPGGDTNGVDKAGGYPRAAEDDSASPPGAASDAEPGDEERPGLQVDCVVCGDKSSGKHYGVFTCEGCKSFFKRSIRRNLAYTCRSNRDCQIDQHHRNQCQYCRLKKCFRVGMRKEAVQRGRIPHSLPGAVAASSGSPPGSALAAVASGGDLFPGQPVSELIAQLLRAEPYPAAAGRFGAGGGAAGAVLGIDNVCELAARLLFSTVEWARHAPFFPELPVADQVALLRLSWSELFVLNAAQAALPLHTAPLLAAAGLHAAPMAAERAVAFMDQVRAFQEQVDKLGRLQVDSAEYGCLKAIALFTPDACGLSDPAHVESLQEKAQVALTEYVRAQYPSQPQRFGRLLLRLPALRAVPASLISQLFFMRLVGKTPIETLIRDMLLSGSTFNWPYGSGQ

Chain of GST-NR2F6 fusion protein, full-length, wild-type (chain, as listed by the source): as the sequence (chain, as listed by the source S89A) above, with A89S counted along it
Chain of recombinant PKCtheta (Q04759 whole entry): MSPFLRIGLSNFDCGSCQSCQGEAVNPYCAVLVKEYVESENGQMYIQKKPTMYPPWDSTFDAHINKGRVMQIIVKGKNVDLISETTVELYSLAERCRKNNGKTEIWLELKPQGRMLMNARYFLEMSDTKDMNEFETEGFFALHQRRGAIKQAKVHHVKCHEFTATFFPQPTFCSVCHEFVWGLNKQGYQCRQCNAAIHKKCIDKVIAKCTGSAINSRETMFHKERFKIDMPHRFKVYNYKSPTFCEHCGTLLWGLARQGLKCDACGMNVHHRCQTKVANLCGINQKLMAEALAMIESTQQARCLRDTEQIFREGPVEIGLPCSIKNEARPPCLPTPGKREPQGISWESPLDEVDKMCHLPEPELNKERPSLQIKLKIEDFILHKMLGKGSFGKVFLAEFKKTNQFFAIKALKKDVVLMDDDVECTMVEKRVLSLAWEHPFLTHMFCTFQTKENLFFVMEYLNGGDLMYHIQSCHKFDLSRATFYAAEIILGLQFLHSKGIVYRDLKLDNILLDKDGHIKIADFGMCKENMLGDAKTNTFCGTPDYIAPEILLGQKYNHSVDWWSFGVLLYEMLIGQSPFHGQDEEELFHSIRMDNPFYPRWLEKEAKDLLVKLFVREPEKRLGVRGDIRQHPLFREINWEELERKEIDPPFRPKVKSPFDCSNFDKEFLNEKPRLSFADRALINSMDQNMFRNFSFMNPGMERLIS
Chain of GST-NR2F6 fusion protein, full-length, S83A mutant (chain, as listed by the source S83A): as the sequence (chain, as listed by the source S89A) above, with S83A, A89S counted along it

Row | Substance | phosphorylation (32P incorporation), in vitro protein kinase assay [1] | phosphorylation (32P incorporation), in vitro protein kinase assay [2] | phosphorylation (32P incorporation), in vitro protein kinase assay [3]
1 | recombinant PKCalpha | PKCalpha, delta and theta (but not PKCzeta or PKA) were able to phosphorylate recombinant NR2F6 in vitro | This phosphorylation was lost after the predicted phosphorylation site at Ser-83 (but not at Ser-89) was mutated in the full-length NR2F6 protein | (but not at Ser-89)
2 | recombinant PKCdelta | PKCalpha, delta and theta (but not PKCzeta or PKA) were able to phosphorylate recombinant NR2F6 in vitro | This phosphorylation was lost after the predicted phosphorylation site at Ser-83 (but not at Ser-89) was mutated in the full-length NR2F6 protein | (but not at Ser-89)
3 | recombinant PKCtheta | PKCalpha, delta and theta (but not PKCzeta or PKA) were able to phosphorylate recombinant NR2F6 in vitro | This phosphorylation was lost after the predicted phosphorylation site at Ser-83 (but not at Ser-89) was mutated in the full-length NR2F6 protein | (but not at Ser-89)
4 | Protein kinase A (PKA) | (but not PKCzeta or PKA) | – | –
